Source: patent US20060026702A1 (DUKE UNIVERSITY, published 2006)

Molecular target: T1, HA epitope-tagged PI3Kγ (pCMV-PI3 Kp110γ wild type) (Homo sapiens (Human), UniProt P48736 1-1102)
T1 construct: Full-length wild type with HA tag, expressed in transfected NIH-3T3 cells; also called HA-PI3Kγ
Experiment: co-immunoprecipitation from cytosolic extracts of transfected NIH-3T3 cells

T1 sequence (P48736 other isoform, or with tags, fused parts or gaps limits assumed): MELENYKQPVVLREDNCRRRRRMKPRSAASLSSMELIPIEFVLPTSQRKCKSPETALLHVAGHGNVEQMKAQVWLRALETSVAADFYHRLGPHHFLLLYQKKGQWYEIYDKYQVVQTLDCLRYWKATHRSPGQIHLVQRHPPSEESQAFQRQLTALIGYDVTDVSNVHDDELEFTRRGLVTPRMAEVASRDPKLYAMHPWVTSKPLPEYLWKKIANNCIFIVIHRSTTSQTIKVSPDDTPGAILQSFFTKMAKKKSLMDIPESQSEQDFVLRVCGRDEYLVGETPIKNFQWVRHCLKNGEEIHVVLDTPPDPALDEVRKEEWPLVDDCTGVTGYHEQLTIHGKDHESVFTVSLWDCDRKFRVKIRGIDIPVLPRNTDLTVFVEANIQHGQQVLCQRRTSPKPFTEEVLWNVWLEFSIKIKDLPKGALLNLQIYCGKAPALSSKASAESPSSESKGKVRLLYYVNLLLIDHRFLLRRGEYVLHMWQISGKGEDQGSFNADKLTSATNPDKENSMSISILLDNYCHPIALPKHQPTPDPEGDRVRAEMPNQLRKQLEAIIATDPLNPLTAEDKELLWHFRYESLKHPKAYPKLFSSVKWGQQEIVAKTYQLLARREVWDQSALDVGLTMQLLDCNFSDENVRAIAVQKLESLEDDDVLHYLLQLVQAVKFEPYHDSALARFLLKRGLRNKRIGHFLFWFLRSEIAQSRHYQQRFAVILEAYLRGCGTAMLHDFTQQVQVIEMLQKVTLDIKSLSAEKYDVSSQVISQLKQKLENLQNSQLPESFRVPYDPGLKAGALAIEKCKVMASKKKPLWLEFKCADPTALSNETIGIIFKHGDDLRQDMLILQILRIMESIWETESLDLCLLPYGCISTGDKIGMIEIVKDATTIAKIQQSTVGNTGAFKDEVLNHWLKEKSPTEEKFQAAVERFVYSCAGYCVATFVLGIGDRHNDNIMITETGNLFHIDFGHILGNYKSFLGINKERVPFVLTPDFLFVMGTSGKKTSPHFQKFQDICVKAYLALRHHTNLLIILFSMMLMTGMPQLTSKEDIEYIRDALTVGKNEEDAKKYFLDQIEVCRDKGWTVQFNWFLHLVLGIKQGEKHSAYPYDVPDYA

B1: β-adrenergic receptor kinase 1 (βARK1), bovine cDNA expressed in transfected cells (enzyme, UniProt P21146 1-689, looked up)
chain: MADLEAVLADVSYLMAMEKSKATPAARASKKILLPEPSIRSVMQKYLEDRGEVTFEKIFSQKLGYLLFRDFCLKHLEEAKPLVEFYEEIKKYEKLETEEERLVCSREIFDTYIMKELLACSHPFSKSAIEHVQGHLVKKQVPPDLFQPYIEEICQNLRGDVFQKFIESDKFTRFCQWKNVELNIHLTMNDFSVHRIIGRGGFGEVYGCRKADTGKMYAMKCLDKKRIKMKQGETLALNERIMLSLVSTGDCPFIVCMSYAFHTPDKLSFILDLMNGGDLHYHLSQHGVFSEADMRFYAAEIILGLEHMHNRFVVYRDLKPANILLDEHGHVRISDLGLACDFSKKKPHASVGTHGYMAPEVLQKGVAYDSSADWFSLGCMLFKLLRGHSPFRQHKTKDKHEIDRMTLTMAVELPDSFSPELRSLLEGLLQRDVNRRLGCLGRGAQEVKESPFFRSLDWQMVFLQKYPPPLIPPRGEVNAADAFDIGSFDEEDTKGIKLLDSDQELYRNFPLTISERWQQEVAETVFDTINAETDRLEARKKTKNKQLGHEEDYALGKDCIMHGYMSKMGNPFLTQWQRRYFYLFPNRLEWRGEGEAPQSLLTMEEIQSVEETQIKERKCLLLKIRGGKQFVLQCDSDPELVQWKKELRDAYREAQQLVQRVPKMKNKPRSPVVELSKVPLIQRGSANGL
notes: Over-expressed in NIH-3T3 or HEK 293 cells and immunoprecipitated with a βARK1 monoclonal antibody; also called GRK2; β3ARK1
binding result: binds
